Source: publication PMC12583694, “RNF114 and RNF166 exemplify reader-writer E3 ligases that extend K11 polyubiquitin onto sites of MARUbylation” (The EMBO Journal, 2025)

Biological target: ADPr-TAMRA (ADPrT)
Experiment: fluorescence polarisation
Conditions: read at the highest titration point, about 75 µM RNF114 (left graph); parent: est. 50; read off a plot

| response | Substance |
| --- | --- |
| 6 | RNF114 (wild type, full-length) (from UniProt Q9Y508) W181D; G182E |
| 13 | RNF114 (wild type, full-length) (from UniProt Q9Y508) R198E |
